Here are results for 21 molecules from patent US20210002644, “ANTI-CHYMASE APTAMER AND USE FOR SAME” (RIBOMIC INC., published 2021).

Data set [1] addresses T1, chymase (native, human skin mast cell) (Homo sapiens, UniProt P23946 P23946:22-247).
T1 sequence: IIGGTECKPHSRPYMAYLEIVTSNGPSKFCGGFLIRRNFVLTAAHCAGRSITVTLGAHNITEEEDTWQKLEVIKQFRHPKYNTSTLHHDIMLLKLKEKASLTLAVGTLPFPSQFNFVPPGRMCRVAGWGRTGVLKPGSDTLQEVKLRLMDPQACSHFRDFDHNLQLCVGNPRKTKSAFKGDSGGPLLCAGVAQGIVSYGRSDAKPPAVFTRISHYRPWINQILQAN
In words: inhibition; angiotensin I substrate. As to conditions: tags: Calbiochem Human Skin. The method, then:
(§1) The total volume of solution for an enzyme reaction in the assay was set to 50 μL, and the reaction was performed in solution C buffer. At first, native (manufactured by Calbiochem) was diluted with solution C to give 5 μL thereof. Here, the native is chymase purified from human skin mast cell. The nucleic acid was serially diluted with solution C at a concentration of 0.0027-2 μM to give 25 μL thereof. The chymase solution (5 μL) and the nucleic acid solution (25 μL) were mixed, and the mixture was incubated at 37° C. for 5 min. On the other hand, […] angiotensin I (manufactured by PEPTIDE […], INC.) was prepared in solution C to give 20 μL thereof, which was incubated at 37° C. for 5 min. The angiotensin I solution was added to a mixture of chymase and nucleic acid to start an enzyme reaction. The final chymase concentration of the reaction solution was 0.5 nM, and the final substrate concentration was 50 μM. After reaction at 37° C. for 90 min, ice-cooled 30% trichloroacetic acid solution (25 μL) was added to quench the reaction. The whole mixture was centrifuged at 4° C., 14000 rpm for 10 min, and the supernatant (30 μL) was used for the next fluorescence induction reaction.
(§2) The above-mentioned supernatant (30 μL) was added to a 96 well plate (black, manufactured by Costar), a solution (15 μL) of 2% o-phthalaldehyde (manufactured by SIGMA) in methanol and 0.3M NaOH solution (170 μL) were added to each well, and the mixture was incubated at room temperature for 10 min. Then, 3M HCl solution (25 μL) was added to quench the reaction. The plate was set on a microplate reader SpectraMax190 (manufactured by Molecular device) and the fluorescence intensity was measured at an excitation wavelength of 355 nm and a fluorescence wavelength of 460 nm.
The nucleic acids of SEQ ID NO: 11-20 were all produced by chemical synthesis. In the evaluation of SEQ ID NO: 11-20, a method similar to the evaluation method of inhibitory activity against chymase shown in Example 1 by using angiotensin I as a substrate was used for measurement. […] The IC₅₀ value is a mean of 2 or 3 measurements.

The target of data set [2] is T1, chymase (native, human skin mast cell). In words: inhibition; angiotensin I substrate. As to conditions: tags: Calbiochem Human Skin. The method, then: as §1, §2
All nucleic acids of SEQ ID NO: 17(1)-17(25) were prepared by chemical synthesis. In the evaluation of SEQ ID NO: 17(1)-17(25), a method similar to the evaluation method of inhibitory activity against chymase shown in Example 1 by using angiotensin I as a substrate was used for measurement. In the Table, the IC₅₀ value is a mean of 2 or 3 measurements.
The source holds these as a separate data set.

Usually IC50 stands for the concentration at which inhibition is half-maximal. Lower therefore signals greater potency in that assay. GAUGAUCGGACAUAACAUUGUUGGGGUGUCAAGCC (ssRNA, 2'-F pyrimidines (U, C); purines 2'-OH) [SEQ ID NO: 15] displayed an IC50 in data set [1] of 1.4 nM. In turn, GGCAGAUGAUCGGACAUAACAUUGUUGGGGUGUCAA (ssRNA, 2'-F pyrimidines (U, C); purines 2'-OH) [SEQ ID NO: 16] returned an IC50 in data set [1] of 2 nM. For AUCGGACAUAACAUUGUUGGGGUGUCAA (ssRNA, 2'-F pyrimidines (U, C); purines 2'-OH) [SEQ ID NO: 19], in data set [1], 14.4 nM corresponded to half-maximal inhibition (IC50). In data set [1], GAUGAUCGGACAUAACAUUGUUGGGGUGUCAA (ssRNA, 2'-F pyrimidines (U, C); purines 2'-OH) [SEQ ID NO: 17] registered an IC50 of 1.4 nM.

B1: SEQ ID NO: 17(8) (mixed)
RNA: GAUGAUCGGACAUAACAUUGUUGGGGUGUCAA
modifications: idT-G(M)A(M)U(F)G(M)A(M)U(F)C(F)G(M)G(M)A(M)C(F)A(M)U(M)AAC(F)A(M)TTG(M)U(F)U(F)G(M)GG(M)G(M)TG(M)TCA(M)A(M)-idT (F=2'-F, M=2'-OMe)
Regarding B1, inhibition in data set [2] was half-maximal at 0.13 nM (IC50).

B2: SEQ ID NO: 17(9) (mixed)
RNA: GAUGAUCGGACAUAACAUUGUUGGGGUGUCAA
modifications: idT-G(M)A(M)U(F)G(M)A(M)U(F)C(F)G(M)G(M)A(M)C(F)A(M)U(F)AAC(M)A(M)TTG(M)U(F)U(F)G(M)GG(M)G(M)TG(M)TCA(M)A(M)-idT (F=2'-F, M=2'-OMe)
Molecule B2 had an IC50 in data set [2] of 0.16 nM.

B3: SEQ ID NO: 17(13) (mixed)
RNA: GAUGAUCGGACAUAACAUUGUUGGGGUGUCAA
modifications: Y-S-G(M)A(M)U(F)G(M)A(M)U(F)C(F)G(M)G(M)A(M)C(F)A(M)U(F)AAC(F)A(M)TTG(M)U(F)U(F)G(M)GG(M)G(M)TG(M)TCA(M)A(M)-idT (F=2'-F, M=2'-OMe; Y=Cys-Phe peptide, S=thiol)
In the case of B3, half-maximal inhibition in data set [2] (IC50) required 0.16 nM.

B4: SEQ ID NO: 17(11) (mixed)
RNA: GAUGAUCGGACAUAACAUUGUUGGGGUGUCAA
modifications: idT-G(M)A(M)U(F)G(M)A(M)U(F)C(F)G(M)G(M)A(M)C(F)A(M)U(F)AAC(F)A(M)TTG(M)U(F)U(M)G(M)GG(M)G(M)TG(M)TCA(M)A(M)-idT (F=2'-F, M=2'-OMe)
Regarding B4, the IC50 in data set [2] is 0.14 nM.

B5: SEQ ID NO: 17(21) (mixed)
RNA: GAUGAUCGGACAUAACAUUGUUGGGGUGUCAA
modifications: idT-G(M)A(M)U(F)G(M)A(M)U(F)C(F)G(M)G(M)A(M)C(F)A(M)U(F)AAC(F)A(M)TTG(M)U(F)U(F)G(M)GsG(M)G(M)TG(M)TCA(M)A(M)-idT (F=2'-F, M=2'-OMe, s=PS)
Molecule B5 showed an IC50 in data set [2] of 0.19 nM.

B6: SEQ ID NO: 17(10) (mixed)
RNA: GAUGAUCGGACAUAACAUUGUUGGGGUGUCAA
modifications: idT-G(M)A(M)U(F)G(M)A(M)U(F)C(F)G(M)G(M)A(M)C(F)A(M)U(F)AAC(F)A(M)TTG(M)U(M)U(F)G(M)GG(M)G(M)TG(M)TCA(M)A(M)-idT (F=2'-F, M=2'-OMe)
B6 displayed an IC50 in data set [2] of 0.13 nM.

B7: SEQ ID NO: 17(5) (mixed)
RNA: GAUGAUCGGACAUAACAUUGUUGGGGUGUCAA
modifications: idT-G(M)A(M)U(F)G(M)A(M)U(F)C(F)G(M)G(M)A(M)C(F)A(M)U(F)AAC(F)ATTG(M)U(F)U(F)G(M)GG(M)G(M)TG(M)TCA(M)A(M)-idT (F=2'-F, M=2'-OMe)
On to B7, for which half-maximal inhibition in data set [2] (IC50) was put at 0.17 nM.

B8: SEQ ID NO: 17(7) (mixed)
RNA: GAUGAUCGGACAUAACAUUGUUGGGGUGUCAA
modifications: idT-G(M)A(M)TG(M)A(M)U(F)C(F)G(M)G(M)A(M)CA(M)U(F)AAC(F)A(M)TTG(M)U(F)U(F)G(M)GG(M)G(M)TG(M)TCA(M)A(M)-idT (F=2'-F, M=2'-OMe; printed LT(F) read as U(F))
B8 had an IC50 in data set [2] of 0.17 nM.

B9: SEQ ID NO: 17(20) (mixed)
RNA: GAUGAUCGGACAUAACAUUGUUGGGGUGUCAA
modifications: idT-G(M)A(M)U(F)G(M)A(M)U(F)C(F)G(M)G(M)A(M)C(F)A(M)U(F)AAsC(F)A(M)TTG(M)U(F)U(F)G(M)GG(M)G(M)TG(M)TCA(M)A(M)-idT (F=2'-F, M=2'-OMe, s=PS)
In data set [2], B9 registered an IC50 of 0.18 nM.

B10: SEQ ID NO: 17(12) (mixed)
RNA: GAUGAUCGGACAUAACAUUGUUGGGGUGUCAA
modifications: X-S-G(M)A(M)U(F)G(M)A(M)U(F)C(F)G(M)G(M)A(M)C(F)A(M)U(F)AAC(F)A(M)TTG(M)U(F)U(F)G(M)GG(M)G(M)TG(M)TCA(M)A(M)-idT (F=2'-F, M=2'-OMe; X=Phe-Cys peptide, S=thiol)
With B10, in data set [2], the midpoint of inhibition, the IC50, lay at 0.19 nM.

B11: SEQ ID NO: 17(17) (mixed)
RNA: GAUGAUCGGACAUAACAUUGUUGGGGUGUCAA
modifications: idT-G(M)A(M)U(F)G(M)A(M)U(F)C(F)G(M)G(M)A(M)C(F)A(M)U(F)AAC(F)A(M)TTG(M)U(F)U(F)G(M)GG(M)G(M)TG(M)TCA(M)A(PHE)-idT (F=2'-F, M=2'-OMe, PHE=8-(propyl)phenyl-rA)
Regarding B11, in data set [2], the half-inhibitory concentration (IC50) was found to be 0.19 nM.

B12: SEQ ID NO: 17(23) (ssRNA)
RNA: GAUGAUCGGACAUAACAUUGUUGGGGUGUCAA
modifications: idT-G(M)A(PHE)U(F)G(M)A(M)U(F)C(F)G(M)G(M)A(M)C(F)A(M)U(F)AAC(F)AU(F)U(F)G(M)U(F)U(F)G(M)GG(M)G(M)U(F)G(M)U(F)C(F)A(M)A(M)-idT (F=2'-F, M=2'-OMe, PHE=8-(propyl)phenyl-rA)
In data set [2], B12 returned an IC50 of 0.16 nM.

B13: SEQ ID NO: 17(14) (mixed)
RNA: GAUGAUCGGACAUAACAUUGUUGGGGUGUCAA
modifications: idT-G(M)A(M)U(F)G(M)A(M)U(F)C(F)G(M)G(M)A(M)C(F)A(M)U(F)AAC(F)A(M)TTG(M)U(F)U(F)G(M)GG(M)G(M)TG(M)TCA(M)A(M)-S-Y (F=2'-F, M=2'-OMe; Y=Cys-Phe peptide, S=thiol)
In data set [2], B13 had an IC50 of 0.19 nM.

B14: SEQ ID NO: 17(18) (mixed)
RNA: GAUGAUCGGACAUAACAUUGUUGGGGUGUCAA
modifications: idT-G(M)A(M)U(F)G(M)A(M)U(F)C(F)G(M)G(M)A(M)C(F)A(M)U(F)sAAC(F)A(M)TTG(M)U(F)U(F)G(M)GG(M)G(M)TG(M)TCA(M)A(M)-idT (F=2'-F, M=2'-OMe, s=PS)
Turning to B14, the IC50 in data set [2] turned out to be 0.15 nM.

B15: SEQ ID NO: 17(19) (mixed)
RNA: GAUGAUCGGACAUAACAUUGUUGGGGUGUCAA
modifications: idT-G(M)A(M)U(F)G(M)A(M)U(F)C(F)G(M)G(M)A(M)C(F)A(M)U(F)AsAC(F)A(M)TTG(M)U(F)U(F)G(M)GG(M)G(M)TG(M)TCA(M)A(M)-idT (F=2'-F, M=2'-OMe, s=PS)
For the molecule B15, in data set [2], it took 0.19 nM to reach half-maximal inhibition (IC50).

B16: SEQ ID NO: 17(2) (ssRNA)
RNA: GAUGAUCGGACAUAACAUUGUUGGGGUGUCAA
modifications: idT-G(M)A(M)U(F)G(M)A(M)U(F)C(F)G(M)G(M)A(M)C(F)A(M)U(F)AAC(F)AU(F)U(F)G(M)U(F)U(F)G(M)GG(M)G(M)U(F)G(M)U(F)C(F)A(M)A(M)-idT (F=2'-F, M=2'-OMe)
As for B16, in data set [2], the IC50 came to 0.21 nM.

B17: SEQ ID NO: 17(16) (mixed)
RNA: GAUGAUCGGACAUAACAUUGUUGGGGUGUCAA
modifications: idT-G(M)A(M)U(F)G(M)A(M)U(F)C(F)G(M)G(M)A(M)C(F)A(M)U(F)AAC(F)A(M)TTG(M)U(F)U(F)G(M)GG(M)G(M)TG(M)TCA(PHE)A(M)-idT (F=2'-F, M=2'-OMe, PHE=8-(propyl)phenyl-rA)
In turn, B17 gave an IC50 in data set [2] of 0.18 nM.
